Where two headings read alike, the source gives them in different places. Primed or numbered codes have the meaning given here. Where no end group is shown, it is not given here. code X = (S)-5-azido-2-(Fmoc-amino)pentanoic acid (δ-azido-L-norvaline); Orn(N3) = [N-]=[N+]=NCCC[C@H](N)C(=O)O; IRDye800CW′ = not defined here; IRDyeQC‑1 = quencher label; IRDye800RS = dye label; Pol = MeO-PEG-alkyne
Experiments:
[1] = system: S. aureus; test: Coated catheter S. aureus challenge, near infrared fluorescence imaging; type: cell-based; settings: for Coating response to S. aureus challenge: coated Foley silicone catheter, 2×10^6 CFU ml^−1 S. aureus, 4 hours, excitation 710 nm, emission 800 nm; for detection of S. aureus (in words): coated catheter, S. aureus challenge
Experimental: The catheter used was a 14F silicone Foley Catheter which was provided in 6 mm lengths and having a diameter of 4.2 mm. An aqueous slurry of each polymer coating was prepared and each piece of catheter plunged into the slurry mixture. The coated catheters were stored at 20° C. in the dark for 15 minutes prior to repeating the dipping procedure. The process was repeated four times in total. After the final coating, the coated catheters were stored at 35° C. for 48 hours to facilitate drying of the coating. Each coated catheter and one none coated catheter as control, were incubated in the presence of 2×10^6 colony-forming units (CFU) ml^−1 of S. auereus for 4 hours. […] The results obtained from the IVIS Spectrum and IVIS Lumina II were analyzed with Living Image 4.2. (Caliper L S, Hopkinton Mass., USA). Optimal detection limits were set to the lowest signal at which positive signal was effortlessly discriminated from negative controls. Signal intensity was determined by drawing regions of interests (ROI's) and measuring average counts in these regions. The signal was corrected for background by subtracting the background signal from the signal of interest, referred to in the text as net counts. A strong near infrared signal was, attributed to the first fluorescent agent.

[2] = target: T1, Granzyme B, Human, Recombinant (Homo sapiens, UniProt P10144); test: Digestion of peptide 1 in solution monitored by luminescence spectroscopy (Granzyme B); type: biochemical; settings: presence of Granzyme B
T1 construct: purchased MerckMillepore 368043; host or cells: E. coli
T1 sequence (P10144 21-247): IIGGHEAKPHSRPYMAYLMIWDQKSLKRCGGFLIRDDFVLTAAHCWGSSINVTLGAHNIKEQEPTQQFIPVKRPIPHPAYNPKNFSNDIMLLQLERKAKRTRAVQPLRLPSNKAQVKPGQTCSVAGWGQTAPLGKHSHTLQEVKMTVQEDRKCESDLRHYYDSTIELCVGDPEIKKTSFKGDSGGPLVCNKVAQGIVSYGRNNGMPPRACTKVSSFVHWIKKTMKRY
Text: Human recombinant protease was obtained from MerckMillepore (368043 Granzyme B, Human, Recombinant, E. coli).

[3] = target: V8 protease (Endoproteinase Glu-C from Staphylococcus aureus V8) (Staphylococcus aureus, UniProt P0C1U8); settings: in solution, excitation 720 nm
Sequence of V8 protease (Endoproteinase Glu-C from Staphylococcus aureus V8) (P0C1U8 69-336): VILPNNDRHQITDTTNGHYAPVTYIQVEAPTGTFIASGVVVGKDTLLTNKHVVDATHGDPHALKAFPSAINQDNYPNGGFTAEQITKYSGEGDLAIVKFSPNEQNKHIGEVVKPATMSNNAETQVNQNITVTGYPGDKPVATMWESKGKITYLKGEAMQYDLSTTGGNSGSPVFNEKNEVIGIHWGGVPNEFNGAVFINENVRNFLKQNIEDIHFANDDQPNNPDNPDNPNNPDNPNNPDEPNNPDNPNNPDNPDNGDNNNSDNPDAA
Experimental: Bacterial protease was obtained from Sigma-Aldrich (Endoproteinase Glu-C from Staphylococcus aureus V8, P2922 SIGMA), also named ‘protease V8’ or ‘V8’ in this document.
The cleavage of peptide 1 in the presence of V8 protease and GranzymB protease was monitored in solution by luminescence spectroscopy. Photo-luminescence spectra were measured on a Perkin-Elmer Luminescence Spectrometer LS50 B. Spectra were recorded from 250 to 900 nm, using an excitation wavelength of 720 nm and applying a slit width of 15 nm.
The digestion in solution was performed in a glass vial. 100 μL of stock solution of peptide 1 (10 mg/mL) was diluted with 625 μL H2O and 250 μL 100 mM phosphate buffer solution (pH=7.8). A sample of 10 μL was taken at t=0. Then, 50 μL of V8 or Granzyme B protease stock solution (25 units, ±25 μg) was added, the mixture shaken and was kept at room temperature. […] At various time points (30 s, 2, 5, 10, 15, 20, 25, 30, 40, 50, 60, 90, 120, 150 and 180 min., and at 18H) a 10 μL incubate sample was taken and was diluted with 3 mL of water. The prepared diluted samples were measured by luminescence spectroscopy, so as to monitor the digestive cleavage of peptide 1. As blanks, cuvettes with water and the same amount of DMSO as the sample solution were used.

[4] = target: V8 protease (Staphylococcus aureus, UniProt P0C1U8); settings: surface bound, Odyssey CLX, exciting at 800 nm
Sequence of V8 protease (P0C1U8 69-336): as above
Experimental: The resulting solution (50 μL) was pipetted onto the glass slide, and the slide was kept in a humidified environment for 1H. The droplet was washed off by rinsing 3× with 1 mL DMSO:H2O 80/20; thereafter, the slide was placed in a washing solution of DMSO:H2O 80/20 and was gently agitated for 1 minute. The washing solution was rinsed off with water (5×1 mL) and the slide was dried by a flow of nitrogen.
Li-Cor Odyssey CLX equipment was used on site at Westburg (Leusden, N L; Timo Kreike, Moniek Kors). All Odyssey CLX measurements were taken by exciting at 800 nm.

For “(IRDye800RS)-KG-(Pol)-X-LLEFRIVAK(IRDye800RS) ({IRDye800RS-Lys-Gly-Pol-code X}-LLEFRIVAK(IRDye800RS); also: MeO-PEG) [Example 5.3]”, the “Coating response to S. aureus challenge” value [1] was “+” and the “detection of S. aureus (in words)” value [1] was “only a weak signal is detected”.

For “G-(Pol)-X-LLEFRIVAC-IRDye800CW (LLEFRIVAC-{IRDye800CW′}; not fully specified (residue 9, N-terminus); also: MeO-PEG) [Example 5.2, comparative, no non-fluorescent agent, reference compound]”, the “Coating response to S. aureus challenge” value [1] was “−” and the “detection of S. aureus (in words)” value [1] was “only a small change in intensity in emitted light is detected”.

In the case of “Ac-X-[K(IRDye800RS)]-GLLEFRIVAK(IRDye800RS)-amide ({Ac-Orn(N3)-K(IRDye800RS)}-GLLEFRIVAK(IRDye800RS)-NH2) [Peptide 1]”, the “cleavage by Granzyme B” value [2] is reported as “not cut”, the background fluorescence ([2]; maintained throughout the experiment) is reported as 1 AU and the background fluorescence ([3]; absence of V8 protease) is reported as “around 1 AU”. The fluorescence intensity ([3]; after 30 s of adding V8 protease) was 4 AU, the fluorescence intensity ([3]; within 6 minutes of adding V8 protease) was 6 AU and the intensity ([4]; before V8 protease) was “circa 6000 units”. The intensity ([4]; in the presence of V8 protease) was 25000 units.

In the case of “Ac-(IRDye800CW)CG-(Pol)-X-LLEFRIVAK(IRDyeQC-1) ({Ac-Cys(IRDye800CW)-Gly-Pol-code X}-LLEFRIVAK(IRDyeQC‑1); also: MeO-PEG) [Example 5.4]”, the “Coating response to S. aureus challenge” value [1] is reported as “++” and the “detection of S. aureus (in words)” value [1] is reported as “very good detection”.
